Target: T1, K11-HTS-Tail (KLP-11 residues 537-782) (Caenorhabditis elegans, UniProt Q19633 537-782)
T1 sequence (looked up): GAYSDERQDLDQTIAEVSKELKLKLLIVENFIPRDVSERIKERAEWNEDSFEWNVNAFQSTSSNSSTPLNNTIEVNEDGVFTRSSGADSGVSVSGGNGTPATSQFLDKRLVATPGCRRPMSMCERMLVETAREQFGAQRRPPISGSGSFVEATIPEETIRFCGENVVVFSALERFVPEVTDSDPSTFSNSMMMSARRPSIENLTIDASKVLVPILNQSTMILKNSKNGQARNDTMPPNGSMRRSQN
Assay: SEC-MALS

B1: K20-HTS-Tail (KLP-20 residues 527-646) (domain or fragment, Caenorhabditis elegans, UniProt Q965T6 527-646, looked up)
chain: EDHQRQVEAMLDDIRQLRKELLLNIAIIDEYIPVEHVELIEKYVSWSEEHGDWQLKAIAYTGNNMRASAPPAKKEFSNNNQTVPMYYSYRADLGASTAEHRPRTSSKKHRASIRLQQLLT
stoichiometry N: 1
